From the supplement of paper PMC5998384 come the findings set out here.

Series [1] has as its system HeLa Kyoto. Nature of the series: solubility change mitosis vs G1/S (difference of NP-40 vs SDS log2 ratios) (log2 ratio difference); higher = more soluble in mitosis.
The test system of series [2] is HeLa Kyoto. Kind of series: solubility in G1/S (NP-40 vs SDS abundance) (log2 ratio); higher = more soluble. As to conditions: cell cycle stage: G1/S.
For series [3], the system named is HeLa Kyoto. Kind of series: melting temperature (median over replicates), in situ; higher = more thermally stable.
The test system of series [4] is HeLa Kyoto. Nature of the series: thermal stability score vs G1/S (z-score of summed log2 fold changes over temperatures); higher = more thermally stable than in G1/S.
The mark [5] stands for this setting: cell cycle stage: early G1 (4.5 h after nocodazole release).
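For melting temperature (median over replicates), in situ in this document: HeLa Kyoto cells synchronized by double thymidine or nocodazole block, proteins quantified by TMT10plex mass spectrometry, three independent biological replicates.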
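For solubility change mitosis vs G1/S (difference of NP-40 vs SDS log2 ratios) in this document: synchronized HeLa Kyoto cells (double thymidine block for G1/S, nocodazole release for mitosis), protein amounts in NP-40 versus SDS lysates quantified by mass spectrometry, three biological replicates.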
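For solubility in G1/S (NP-40 vs SDS abundance) in this document: HeLa Kyoto cells arrested at G1/S by double thymidine block, proteins quantified by TMT10plex mass spectrometry in mild NP-40 versus SDS extracts, three biological replicates.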
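For thermal stability score vs G1/S (z-score of summed log2 fold changes over temperatures) in this document: synchronized HeLa Kyoto cells, proteins quantified by TMT10plex mass spectrometry, three biological replicates, mitosis taken 0.5 h after nocodazole release, G1/S directly after double thymidine block.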

For “MARPDDEEGAAVAPGHPLAKGYLPLPRGAPVGKESVELQNGPKAGTFPVNGAPRDSLAAASGVLGGPQTPLAPEEETQARLLPAGAGAETPGAESSPLPLTALSPRRFVVLLIFSLYSLVNAFQWIQYSIISNVFEGFYGVTLLHIDWLSMVYMLAYVPLIFPATWLLDTRGLRLTALLGSGLNCLGAWIKCGSVQQHLFWVTMLGQCLCSVAQVFILGLPSRIASVWFGPKEVSTACATAVLGNQLGTAVGFLLPPVLVPNTQNDTNLLACNISTMFYGTSAVATLLFILTAIAFKEKPRYPPSQAQAALQDSPPEEYSYKKSIRNLFKNIPFVLLLITYGIMTGAFYSVSTLLNQMILTYYEGEEVNAGRIGLTLVVAGMVGSILCGLWLDYTKTYKQTTLIVYILSFIGMVIFTFTLDLRYIIIVFVTGGVLGFFMTGYLPLGFEFAVEITYPESEGTSSGLLNASAQIFGILFTLAQGKLTSDYGPKAGNIFLCVWMFIGIILTALIKSDLRRHNINIGITNVDVKAIPADSPTDQEPKTVMLSKQSESAI [FLVCR1]”, the “solubility change mitosis (log2)” value with HeLa Kyoto [1] was -0.0168. In the series on HeLa Kyoto [2], the “solubility in G1/S (log2)” value is -0.162. For the same sequence, the melting temperature with HeLa Kyoto [3] (cell cycle stage: G1/S) came out at 57.4 °C; in the series with HeLa Kyoto [3] (cell cycle stage: mitosis), 59.1 °C. The figures for the thermal stability score with HeLa Kyoto [4] (setting [5]) and in the series with HeLa Kyoto [4] (cell cycle stage: mitosis) were -1.21 and -2.85, respectively.
For “MARRGWRRAPLRRGVGSSPRARRLMRPLWLLLAVGVFDWAGASDGGGGEARAMDEEIVSEKQAEESHRQDSANLLIFILLLTLTILTIWLFKHRRARFLHETGLAMIYGLLVGLVLRYGIHVPSDVNNVTLSCEVQSSPTTLLVNVSGKFYEYMLKGEISSHELNNVQDNEMLRKVTFDPEVFFNILLPPIIFYAGYSLKRRHFFRNLGSILAYAFLGTAISCFVIGSIMYGCVTLMKVTGQLAGDFYFTDCLLFGAIVSATDPVTVLAIFHELQVDVELYALLFGESVLNDAVAIVLSSSIVAYQPAGDNSHTFDVTAMFKSIGIFLGIFSGSFAMGAATGVVTALVTKFTKLREFQLLETGLFFLMSWSTFLLAEAWGFTGVVAVLFCGITQAHYTYNNLSTESQHRTKQLFELLNFLAENFIFSYMGLTLFTFQNHVFNPTFVVGAFVAIFLGRAANIYPLSLLLNLGRRSKIGSNFQHMMMFAGLRGAMAFALAIRDTATYARQMMFSTTLLIVFFTVWVFGGGTTAMLSCLHIRVGVDSDQEHLGVPENERRTTKAESAWLFRMWYNFDHNYLKPLLTHSGPPLTTTLPACCGPIARCLTSPQAYENQEQLKDDDSDLILNDGDISLTYGDSTVNTEPATSSAPRRFMGNSSEDALDRELAFGDHELVIRGTRLVLPMDDSEPPLNLLDNTRHGPA [SLC9A6]”, in the series on HeLa Kyoto [1], the “solubility change mitosis (log2)” value is -0.268. The “solubility in G1/S (log2)” value in the series on HeLa Kyoto [2] turned out to be 0.0823. For the same sequence, the melting temperature in the series on HeLa Kyoto [3] (cell cycle stage: G1/S) worked out at 56.1 °C; in the series on HeLa Kyoto [3] (cell cycle stage: mitosis) it was 57.1 °C. Besides, the thermal stability score is -2.9 in the series on HeLa Kyoto [4] (setting [5]) and -3.5 with HeLa Kyoto [4] (cell cycle stage: mitosis).
Turning to “MARYEEVSVSGFEEFHRAVEQHNGKTIFAYFTGSKDAGGKSWCPDCVQAEPVVREGLKHISEGCVFIYCQVGEKPYWKDPNNDFRKNLKVTAVPTLLKYGTPQKLVESECLQANLVEMLFSED [TXNDC17]”, the “solubility change mitosis (log2)” value in the series with HeLa Kyoto [1] is -0.128. Besides, the “solubility in G1/S (log2)” value in the series with HeLa Kyoto [2] was 0.304. The melting temperature is 50.8 °C in the series on HeLa Kyoto [3] (cell cycle stage: G1/S) and 51.6 °C in the series on HeLa Kyoto [3] (cell cycle stage: mitosis). For the same sequence, the thermal stability score is 4.94 with HeLa Kyoto [4] (setting [5]) and 2.6 in the series with HeLa Kyoto [4] (cell cycle stage: mitosis).
With “MASADSRRVADGGGAGGTFQPYLDTLRQELQQTDPTLLSVVVAVLAVLLTLVFWKLIRSRRSSQRAVLLVGLCDSGKTLLFVRLLTGLYRDTQTSITDSCAVYRVNNNRGNSLTLIDLPGHESLRLQFLERFKSSARAIVFVVDSAAFQREVKDVAEFLYQVLIDSMGLKNTPSFLIACNKQDIAMAKSAKLIQQQLEKELNTLRVTRSAAPSTLDSSSTAPAQLGKKGKEFEFSQLPLKVEFLECSAKGGRGDVGSADIQDLEKWLAKIA [SRPRB]”, the “solubility change mitosis (log2)” value with HeLa Kyoto [1] is -0.0359. Besides, the “solubility in G1/S (log2)” value in the series on HeLa Kyoto [2] is 0.446. In addition, the melting temperature with HeLa Kyoto [3] (cell cycle stage: G1/S) came out at 50.2 °C; in the series with HeLa Kyoto [3] (cell cycle stage: mitosis) it was 50 °C. In addition, the thermal stability score stood at 3.56 in the series with HeLa Kyoto [4] (setting [5]) and 5.21 in the series with HeLa Kyoto [4] (cell cycle stage: mitosis).
For the sequence “MASATAAAARRGLGRALPLFWRGYQTERGVYGYRPRKPESREPQGALERPPVDHGLARLVTVYCEHGHKAAKINPLFTGQALLENVPEIQALVQTLQGPFHTAGLLNMGKEEASLEEVLVYLNQIYCGQISIETSQLQSQDEKDWFAKRFEELQKETFTTEERKHLSKLMLESQEFDHFLATKFSTVKRYGGEGAESMMGFFHELLKMSAYSGITDVIIGMPHRGRLNLLTGLLQFPPELMFRKMRGLSEFPENFSATGDVLSHLTSSVDLYFGAHHPLHVTMLPNPSHLEAVNPVAVGKTRGRQQSRQDGDYSPDNSAQPGDRVICLQVHGDASFCGQGIVPETFTLSNLPHFRIGGSVHLIVNNQLGYTTPAERGRSSLYCSDIGKLVGCAIIHVNGDSPEEVVRATRLAFEYQRQFRKDVIIDLLCYRQWGHNELDEPFYTNPIMYKIIRARKSIPDTYAEHLIAGGLMTQEEVSEIKSSYYAKLNDHLNNMAHYRPPALNLQAHWQGLAQPEAQITTWSTGVPLDLLRFVGMKSVEVPRELQMHSHLLKTHVQSRMEKMMDGIKLDWATAEALALGSLLAQGFNVRLSGQDVGRGTFSQRHAIVVCQETDDTYIPLNHMDPNQKGFLEVSNSPLSEEAVLGFEYGMSIESPKLLPLWEAQFGDFFNGAQIIFDTFISGGEAKWLLQSGIVILLPHGYDGAGPDHSSCRIERFLQMCDSAEEGVDGDTVNMFVVHPTTPAQYFHLLRRQMVRNFRKPLIVASPKMLLRLPAAVSTLQEMAPGTTFNPVIGDSSVDPKKVKTLVFCSGKHFYSLVKQRESLGAKKHDFAIIRVEELCPFPLDSLQQEMSKYKHVKDHIWSQEEPQNMGPWSFVSPRFEKQLACKLRLVGRPPLPVPAVGIGTVHLHQHEDILAKTFA [DHTKD1]”, the “solubility change mitosis (log2)” value with HeLa Kyoto [1] was -0.0218. In the series with HeLa Kyoto [2], the “solubility in G1/S (log2)” value was -0.0401. The melting temperature amounted to 51.2 °C in the series with HeLa Kyoto [3] (cell cycle stage: G1/S) and 51.4 °C in the series on HeLa Kyoto [3] (cell cycle stage: mitosis). For the same sequence, the values for the thermal stability score with HeLa Kyoto [4] (setting [5]) and with HeLa Kyoto [4] (cell cycle stage: mitosis) were -0.797 and -0.271, respectively.
For “MASCPDSDNSWVLAGSESLPVETLGPASRMDPESERALQAPHSPSKTDGKELAGTMDGEGTLFQTESPQSGSILTEETEVKGTLEGDVCGVEPPGPGDTVVQGDLQETTVVTGLGPDTQDLEGQSPPQSLPSTPKAAWIREEGRCSSSDDDTDVDMEGLRRRRGREAGPPQPMVPLAVENQAGGEGAGGELGISLNMCLLGALVLLGLGVLLFSGGLSESETGPMEEVERQVLPDPEVLEAVGDRQDGLREQLQAPVPPDSVPSLQNMGLLLDKLAKENQDIRLLQAQLQAQKEELQSLMHQPKGLEEENAQLRGALQQGEAFQRALESELQQLRARLQGLEADCVRGPDGVCLSGGRGPQGDKAIREQGPREQEPELSFLKQKEQLEAEAQALRQELERQRRLLGSVQQDLERSLQDASRGDPAHAGLAELGHRLAQKLQGLENWGQDPGVSANASKAWHQKSHFQNSREWSGKEKWWDGQRDRKAEHWKHKKEESGRERKKNWGGQEDREPAGRWKEGRPRVEESGSKKEGKRQGPKEPPRKSGSFHSSGEKQKQPRWREGTKDSHDPLPSWAELLRPKYRAPQGCSGVDECARQEGLTFFGTELAPVRQQELASLLRTYLARLPWAGQLTKELPLSPAFFGEDGIFRHDRLRFRDFVDALEDSLEEVAVQQTGDDDEVDDFEDFIFSHFFGDKALKKRSGKKDKHSQSPRAAGPREGHSHSHHHHHRG [PBXIP1]”, the “solubility change mitosis (log2)” value in the series on HeLa Kyoto [1] was -0.0444. The “solubility in G1/S (log2)” value with HeLa Kyoto [2] was -0.166. In addition, the melting temperature in the series on HeLa Kyoto [3] (cell cycle stage: G1/S) was determined as 55.4 °C; in the series on HeLa Kyoto [3] (cell cycle stage: mitosis), 53.7 °C. The thermal stability score is -1.68 with HeLa Kyoto [4] (setting [5]) and 0.474 in the series with HeLa Kyoto [4] (cell cycle stage: mitosis).
